Columns and labels:
[1] = target: T1, polymorphonuclear leucocyte elastase from human sputum (Homo sapiens, UniProt P08246); experiment: Effect of serum albumin on elastase inhibitory activity (Example 13); type: biochemical; settings: in the presence of 0.8% or 8% calf serum albumin
T1 construct: Polymorphonuclear leukocyte elastase from human sputum (EPC Co; Funakoshi Yakuhin); purchased EPC Co. (via Funakoshi Yakuhin); host or cells: human sputum
T1 sequence (P08246 30-267): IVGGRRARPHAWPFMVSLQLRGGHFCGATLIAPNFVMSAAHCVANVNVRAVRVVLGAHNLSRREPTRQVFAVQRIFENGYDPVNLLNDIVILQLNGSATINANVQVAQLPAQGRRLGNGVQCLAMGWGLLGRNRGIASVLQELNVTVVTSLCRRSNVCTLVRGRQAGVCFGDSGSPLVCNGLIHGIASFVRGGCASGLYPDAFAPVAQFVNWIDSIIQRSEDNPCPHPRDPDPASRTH
Method: The inhibitory activity of a active-form (Asn^55 -Ala^107) SLPI fragment polypeptide on polymorphonuclear leucocyte elastase from human sputum was measured by the same procedure as in Example 12 in the presence of 0.8% or 8% calf serum albumin.

[2] = Partial hydrolysis with healthy human saliva (Examples 15, 16); type: in vitro ADME; settings: 37° C.
Method: Healthy human saliva was filtered through a 0.22 μm filter (Milex GS, Milipore), and in the filtrate was dissolved 1 mg/ml of the SLPI prepared in Reference Example 1. The mixture was then incubated at 37° C. for 30 days. As a control, the SLPI was dissolved in physiological saline (Physisalz; Fuso Yakuhin Kogyo), and the mixture was incubated at 37° C. for 30 days.
With an elapse of time, samples were taken and to each sample were added a Tris-HCl buffer (pH 6.8), SDS, 2-mercaptoethamel and glycerol, to final concentration of 60 mM, 2% by weight, 4% by weight and 10% by weight, respectively, and the mixture was subjected to an SDS-PAGE (U.K. Laemmli, Nature, 227, 680, 1970). The gel after electrophoresis was stained with Coomussie Brilliant Blue.
Next, polypeptides in the polyacrylamide gel thus obtained were electrically transferred to a membrane (Immobilon; Milipore) using a Milli Blot-SDE apparatus. After the transfer, the membrane was stained with 0.1% by weight of Coomassie Blue in 40% by weight methanol/1% by weight acetic acid, and washed with water. Then, after air drying, the bands b, c, d and e were excised, and for each band, the PTH-amino acids were cleaved from the N-terminus with an Applied Biosystems Protein Sequences (Applied Biosystems; 470A) and analysed with a PTH analyser (Applied Biosystems, 120A) to determine an amino acid sequence for 10 amino acids from the N-terminus.
According to the same procedure as described in Example 15, (Asn^55 -Ala^107) SLPI prepared in Example 11 was treated with healthy human saliva at 37° C., and a result is shown in FIG. 13. […] After 12 hours, a new band g (MW about 5,500) appeared.
Next, according to the same procedure as described in Example 15, the band g was electrically transferred to a membrane and N-terminal amino acid sequence was analyzed. […] The 6th amino acid could not be determined. The N-terminal amino acid sequence of the band g corresponds to an amino acid sequence starting from Arg^59 of SLPI.

[3] = target: T1, polymorphonuclear leucocyte elastase from human sputum; experiment: Treatment with polymorphonuclear leucocyte elastase from human sputum (Examples 27, 30); type: in vitro ADME; settings: 37° C.; N-terminal sequencing of SDS-PAGE bands
Method: Polymorphonuclear leucocyte elastase from human sputum (EPC, Funakoshi Yakuhin) and SLPI were separately dissolved in a buffer (0.1M HEPES, 0.1M NaCl, 0.1% PEG 6000, pH 7.5) and the elastase solution was added to the SLPI solution, and the mixture was incubated at 37° C. Samples were taken as time elapsed, and to each sample were added Tris-HCl buffer (pH 6.8), SDS, 2-mercaptolethanol, glycerol, and Coomassie Brilliant Blue to final concentrations of 50 mM, 4 w/v %, 2 v/v %, 12 v/v % and 0.01 w/v % respectively. The mixture was subjected to SDS-polyacrylamide gel electrophoresis using Tricine (Sigma) as a polar buffer (Schagger, H., Anal. Biochem. 166, 368, 1987). After the electrophoresis, the gel was stained with Coomassie Brilliant Blue G-250, and decoloured with 50% (v/v) methanol/10% (v/v) acetic acid. […]
(3) Next, polypeptides thus generated were electrically transferred to a membrane (Immobilon-p^SQ Millipore) using a Milli Blot-SDE apparatus (Millipore). […] After drying, relevant bands were cut out, and the peptide was cleaved from the N-terminal using an Applied Biosystems Protein-Sequencer (Applied Biosystems; 477A), and after PTH-conversion, the resulting amino acid derivatives were analyzed by a PTH-Amino acid analyzer (Applied Biosystems, 120A) to determine the N-terminal amino acid sequence. […]

(Asn^55 -Ala^107) SLPI: polypeptide having an amino acid sequence starting with the 55th Asn and ending at the 107th Ala of SLPI (NPTRRKPGKCPVTYGQCLMLNPPNFCEMDGQCKRDLKCCMGMCGKSCVSPVKA)
effect of calf serum albumin on elastase inhibitory activity [1]: had no effect on its activity
SDS-PAGE band after incubation in physiological saline without saliva ([2]; 96 hours): only the band f having an MW of about 5,800 remained
SDS-PAGE bands after incubation in healthy human saliva ([2]; 96 hours, band f = starting polypeptide, band g MW about 5,500): only the band g remained after 96 hours of incubation
cleavage sites in healthy human saliva ([2]; SDS-PAGE bands, N-terminal sequencing): cleaved at a site between Arg^58 -Arg^59
selective cleavage sites with elastase from human sputum [3]: cleaved at the site between Thr^57 -Arg^58

Source: US5851983A, “Elastase inhibitory polypeptide and process for production thereof by recombinant gene technology” (Teijin Limited, priority 1987, dated 1998)
